Source: patent publication US20090264338A1, “Inhibitor of Insulin Multimer Formation” (priority 2005, published 2009)

Key:
[1] = target: T1, insulin hexamer (Homo sapiens, UniProt P01308); assay: Gel filtration chromatography of insulin hexamer formation in the presence of INHD peptide; type: biochemical; details: 5 μM insulin
T1 construct: purchased Sigma-Aldrich Corp
Protocol: In order to separately detect insulin hexamers and insulin monomers, gel filtration chromatography was performed. PBS supplemented with 100 μM ZnCl2 was used as a solvent to form hexamers at a concentration of this experiment (5 μM). This is because zinc ion stabilizes insulin hexamers. For the 5 μM insulin solution, the hexamer was the main peak, and the ratio of the monomer was extremely low.
The insulin solution was subjected to gel filtration chromatography in the presence of the INHD peptide to show inhibition of insulin hexamer formation by the INHD peptide.

[2] = tested on: Fc-fusion human insulin receptor; assay: BIACORE 2000 analysis of the interaction between insulin and insulin receptor in the presence of the peptides; type: binding; details: 5 μM insulin forming a hexamer in the presence of 100 μM ZnCl2, 500 μM peptide added
Protocol: A DNA sequence encoding the Fc-fusion human insulin receptor (Bass, J. J. Biol. Chem. 271, 19367 (1996)) was constructed and inserted into the vector pEF-BOS (Nucleic Acids Res. 1990 Sep. 11; 18(17): 5322). Mammalian cells, FreeStyle 293-F, were cultured at 37° C., and the concentration of the cells was adjusted to 1×10^6 cells/mL. The insulin receptor-expressing plasmid was mixed with Cellfectin (Invitrogen Corporation), and added to the cells, followed by culture for an additional two days. The obtained culture supernatant was purified by protein A affinity chromatography, to yield an Fc-fusion human insulin receptor.
Commercially available insulin (manufactured by Sigma-Aldrich Corp.) and the Fc-fusion human insulin receptor obtained by the method above (item (1)) were used to analyze the interaction between insulin and the insulin receptor (BIACORE 2000, manufactured by Biacore Medical Technologies, Inc.). First, PBS with or without 100 μM ZnCl2 was used to prepare 5 μM insulin solutions.
Subsequently, 500 μM INHD1 and INHD2 peptides were added to insulin that forms a hexamer in the presence of ZnCl2, and the interaction between insulin and the insulin receptor was observed.

T1 sequence (P01308 25-54 limits assumed): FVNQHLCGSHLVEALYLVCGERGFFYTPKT
T1 sequence (P01308 90-110 limits assumed): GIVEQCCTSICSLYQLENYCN

| Substance | inhibition of hexamer formation (gel filtration) ([1]; PBS with 100 μM ZnCl2, compared with INHD1 peptide) | receptor binding of insulin (interaction between insulin and the insulin receptor) [2] | peak which represents the insulin hexamer (gel filtration) ([1]; 500 μM peptide, PBS with 100 μM ZnCl2) |
| --- | --- | --- | --- |
| INHD2: Smaller designed peptide corresponding to the insulin B-chain α-helix at positions 5 to 20 (HEEGSKKVQELYAKSG) | slightly lower than that for the INHD1 peptide | significantly increased to a level approximately equal to that with an insulin monomer | – |
| INHD1: Designed peptide from insulin B-chain positions 5 to 29, with Glu/Lys introduced, Glu13 to Gln, Leu17 to Ala, Cys19 to Ser (HEEGSKKVQELYAKSGERGFFYTPK) | – | significantly increased to a level approximately equal to that with an insulin monomer | significantly decreased |
